From paper PMC2816023
pKd: −log10 of the molar value.

Biological target: recombinant extracellular region of human calsyntenin-1 (residues 29-859) (human) (UniProt O94985)
Experiment: SPR

UniProt O94985, sequence (O94985 29-859): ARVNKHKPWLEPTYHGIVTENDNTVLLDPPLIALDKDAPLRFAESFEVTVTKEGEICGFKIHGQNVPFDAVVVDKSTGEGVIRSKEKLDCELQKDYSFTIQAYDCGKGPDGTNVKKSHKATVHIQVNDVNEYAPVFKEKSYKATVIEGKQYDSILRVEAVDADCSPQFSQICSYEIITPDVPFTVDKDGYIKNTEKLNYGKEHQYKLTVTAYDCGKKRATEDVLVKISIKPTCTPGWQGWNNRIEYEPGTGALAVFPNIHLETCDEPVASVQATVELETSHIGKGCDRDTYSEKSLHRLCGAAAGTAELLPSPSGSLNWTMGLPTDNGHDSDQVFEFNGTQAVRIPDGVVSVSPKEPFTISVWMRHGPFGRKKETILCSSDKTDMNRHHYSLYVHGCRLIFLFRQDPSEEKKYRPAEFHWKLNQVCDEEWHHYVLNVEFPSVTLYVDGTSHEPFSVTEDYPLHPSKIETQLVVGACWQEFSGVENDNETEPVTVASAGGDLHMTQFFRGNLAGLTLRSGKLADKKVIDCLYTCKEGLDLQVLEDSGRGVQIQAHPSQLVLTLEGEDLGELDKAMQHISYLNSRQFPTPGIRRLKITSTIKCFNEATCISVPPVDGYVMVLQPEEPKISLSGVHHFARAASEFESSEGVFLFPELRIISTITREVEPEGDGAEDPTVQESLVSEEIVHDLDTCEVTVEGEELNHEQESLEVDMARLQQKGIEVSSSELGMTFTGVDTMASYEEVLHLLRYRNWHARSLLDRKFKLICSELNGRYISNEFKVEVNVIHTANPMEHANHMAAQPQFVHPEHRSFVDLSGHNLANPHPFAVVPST

fibrillin-1 fragment PF1 (from UniProt P35555 45-2731) (domain or fragment)
pKd: 6.62
